# Measured values taken from patent US11603409B2, “Humanized DR4 antibody gene having apoptosis-inducing activity and dual-acting chimeric antigen receptor T cell or natural killer cell therapeutic agent using same” (GENEUIN-TECH CO., LTD., priority 2017, dated 2023).
# B1: secretory humanized DR4 scFv antibody recombinant protein: Secreted humanized anti-DR4 scFv (SEQ ID NO: 1) with isoleucine zipper, Flag and His6 tags, expressed from pCMVFL-srkDR4 in HEK293 cells (protein)
# scFv: EVQLVESGGGLVQPGGSLRLSCSASGFTFSSYSMQWVRQAPGKGLEYVAGIRSDGRYTNYGAAVKGRATISRDNSKNTVYLQMNSLRAEDTAVYYCAKGAYGYCGSTCAPYLGQIDAWGQGTLVTVSSGSTSGSGKPGSGEGSTKGSYELTQPPSVSVSPGQTVRITCSGGRYTYGWFQQKPGQAPVTVIYGNDKRPSNIPSRFSGSTSGSTVTLTISGVQAEDEADYYCGGADFSAGLFGGGTKLTVL
# modifications: left off: small tags and cut ends; a dimerising Fc or GST
# Key:
# [1] = tested on: HEK293 cells which do not express DR4; experiment: Apoptosis induction by secretory DR4 scFv protein, MTT method, HEK293 control cells; type: cell-based, human; conditions: HEK293 cells not expressing DR4; protein added to culture medium at low and high concentrations; FIG. 4(A)
# Protocol: (§1) To this end, apoptosis-inducing effects of secretory humanized DR4 scFv antibody recombinant protein were analyzed using HeLa cells, a cervical cancer cell line expressing DR4 on the cell surface, and HCT-116 cells, a colon cancer cell line. […] Each of these three cells was inoculated in a culture dish and cultured overnight, and then the secretory humanized DR4 scFv antibody recombinant protein was added to the culture medium, and the degree of death of the cells during culturing was determined by MTT method (Cyto X™ Cell viability assay kit, LPS solution, Korea).
# [2] = tested on: HeLa cells, a cervical cancer cell line expressing DR4; experiment: Apoptosis induction by secretory DR4 scFv protein, MTT method, HeLa cells; type: cell-based; conditions: low and high concentrations, FIG. 4(B)
# Protocol: as §1
# [3] = tested on: HCT-116 cells, a colon cancer cell line; experiment: Apoptosis induction by secretory DR4 scFv protein, MTT method, HCT-116 cells; type: cell-based; conditions: HCT-116 cells expressing DR4; low and high concentrations; FIG. 4(C)
# Protocol: as §1
molecule,measurement,setting,value
B1,apoptosis effect (degree of death of the cells by MTT method),[1],not observed
same,apoptosis effect (degree of death of the cells by MTT method),[2],apoptosis increased in proportion to the concentration
same,apoptosis effect (degree of death of the cells by MTT method),[3],apoptosis increased in proportion to the concentration
